How the values were obtained:
[1] = Effect of denaturing agents on protease activity (FaGLa, 50° C.); type: biochemical
Protocol: Protease activities were determined in 50 mM MOPS (pH 7.0), 5 mM CaCl2, 50 mM NaCl, 0.01% Triton X-100, 0.5% isopropanol, using 100 μM FaGLa (3-(-2-furylacryloyl)-L-glycyl-L-leucine amide) as a substrate at 50° C. Enzymes and denaturing agents were preincubated in the reaction mixture at 50° C. for 15 minutes prior to the addition of the substrate. The reaction was followed by measuring the change in absorbance at 345 nm. […] Activities are expressed as percentage of the activity in the absence of denaturant.

[2] = tested on: α-amylase from Bacillus licheniformis; assay: Hydrolysis of protease resistant α-amylase (SDS-PAGE); type: biochemical; settings: 60 minutes
Protocol: As an example of the enzymatic activity of the 8-fold mutant we tested the hydrolysis of protease resistant α-amylase from Bacillus licheniformis by the 8-fold mutant. B. licheniformis α-amylase (1 mg/ml) in 50 mM MOPS, pH 7.0, 5 mM CaCl2, 0.01% Triton X-100 was incubated with purified TLP-ste (1 μg/ml), the 8-fold mutant or without protease for 60 minutes at the temperature indicated. The reaction volume was 500 μL. […] Precipitates (only observed in the 100° C. samples) were collected by centrifugation and redissolved in 500 μL 6 M Urea. Both supernatants and redissolved precipitates were subjected to standard SDS-PAGE, including pre-treatment with sample loading buffer (5 minutes at 100° C.). The samples were identical in size (20 μL supernatant and 20 μL dissolved precipitate). Gels were stained with Coomassie-brilliant blue.

B1: 8-fold mutant: TLP-ste with A4T, T56A, G58A, T63F, S65P, A69P and a disulfide bridge G8C-N60C (protein)
chain: VAGTSTVCVGRGVLGDQKYINTTYSSYYGYYYLQDNTRGSGIFTYDGRNRTVLPGSLWADADCQFFAPYDAPAVDAHYYAGVVYDYYKNVHGRLSYDGSNAAIRSTVHYGRGYNNAFWNGSQMVYGDGDGQTFLPFSGGIDVVGHELTHAVTDYTAGLVYQNESGAINEAMSDIFGTLVEFYANRNPDWEIGEDIYTPGVAGDALRSMSDPAKYGDPDHYSKRYTGTQDNGGVHTNSGIINKAAYLLSQGGVHYGVSVNGIGRDKMGKIFYRALVYYLTPTSNFSQLRAACVQAAADLYGSTSQEVNSVKQAFNAVGVY
activity and stability in the presence of high concentrations of denaturing agents [1]: active and stable
relative activity ([1]; GndHCl 0 M): 100%
relative activity ([1]; GndHCl 1.0 M): 95%
relative activity ([1]; GndHCl 2.0 M): 83%
relative activity ([1]; GndHCl 3.0 M): 68%
relative activity ([1]; GndHCl 4.0 M): 50%
relative activity ([1]; GndHCl 5.0 M): 40%
relative activity ([1]; GndHCl 5.5 M): 15%
relative activity ([1]; GndHCl 6.0 M): 0%
relative activity ([1]; SDS 0 % w/v): 100%
relative activity ([1]; SDS 0.25 % w/v): 94%
relative activity ([1]; SDS 0.5 % w/v): 81%
relative activity ([1]; SDS 0.75 % w/v): 57%
relative activity ([1]; SDS 1.0 % w/v): 40%
relative activity ([1]; SDS 1.25 % w/v): 29%
relative activity ([1]; SDS 1.5 % w/v): 22%
relative activity ([1]; SDS 2.0 % w/v): 0%
relative activity ([1]; Urea 0 M): 100%
relative activity ([1]; Urea 0.5 M): 97%
relative activity ([1]; Urea 1.0 M): 91%
relative activity ([1]; Urea 2.0 M): 93%
relative activity ([1]; Urea 3.0 M): 86%
relative activity ([1]; Urea 4.0 M): 72%
relative activity ([1]; Urea 5.0 M): 63%
relative activity ([1]; Urea 7.5 M): 35%
degradation of B. licheniformis α-amylase ([2]; 80° C. and lower): No significant degradation
hydrolysis of B. licheniformis α-amylase ([2]; 100° C.): completely hydrolysed
